# Laboratory results as given in paper PMC5612113.
# B1: Notch2 TM helix-containing fragment, Notch2(1666–1710) [human] / itself (parent)
# chain: VVSESLTPERTQLLYLLAVAVVIILFIILLGVIMAKRKRKHGSLW
# B2: Notch1 TM helix-containing fragment, Notch1(1721–1767) [human] / itself (parent)
# chain: VQSETVEPPPPAQLHFMYVAAAAFVLLFFVGCGVLLSRKRRRQHGQL
# B3: Notch4 TM helix-containing fragment, Notch4(1432–1481) [human] / itself (parent)
# chain: VHPHAGTAPPANQLPWPVLCSPVAGVILLALGALLVLQLIRRRRREHGAL
# B4: Notch3 TM helix-containing fragment, Notch3(1629–1675) [human] / itself (parent)
# chain: VRGEPLEPPEPSVPLLPLLVAGAVLLLVILVLGVMVARRKREHSTLW
# Variants of: B1
# Assay: Tango assay
# Conditions: with itself;; read off a plot
row,Variant,response (relative activity (C99-WT = 100))
1,chain 1 A18P V19P,82
2,chain 1 F26P I27P,46
3,chain 1 I28P L29P,53

# Variants of: B2
# Assay: Tango assay
# Conditions: with itself;; read off a plot
row,Variant,response (relative activity (C99-WT = 100))
1,chain 1 A20P A21P,130
2,chain 1 F28P F29P,93
3,chain 1 V30P G31P,91

# Variants of: B3
# Assay: Tango assay
# Conditions: with itself;; read off a plot
row,Variant,response (relative activity (C99-WT = 100))
1,chain 1 A33P L34P,140
2,chain 1 L31P G32P,93
3,chain 1 V23P A24P,130

# Variants of: B4
# Assay: Tango assay
# Conditions: with itself;; read off a plot
row,Variant,response (relative activity (C99-WT = 100))
1,chain 1 L30P V31P,91
2,chain 1 V20P A21P,84
3,chain 1 V28P I29P,62
